Measured values reported in paper PMC8571087, “Sphingadienine-1-phosphate levels are regulated by a novel glycoside hydrolase family 1 glucocerebrosidase widely distributed in seed plants” (The Journal of Biological Chemistry, 2021).

How the values were obtained:
purified protein = substrate: O=[N+]([O-])c1ccc(O[C@@H]2O[C@H](CO)[C@@H](O)[C@H](O)[C@H]2O)cc1; assay: purified protein; conditions: Buffer J pH 5.5 (sodium acetate, sodium cholate, 0.1% Tween 20), 37 °C, 15 min
[1] = substrate: CCCCCCCCC/C=C/CC/C=C/[C@@H](O)[C@H](CO[C@@H]1O[C@H](CO)[C@@H](O)[C@H](O)[C@H]1O)NC(=O)[C@H](O)CCCCCCCCCCCCCC; assay: ceramide release by LC-ESI-MS/MS, Hanes-Woolf plot; type: biochemical, Oryza sativa; conditions: Buffer J pH 5.5 (sodium acetate, sodium cholate, 0.1% Tween 20), 37 °C, 15 min
Excerpt: (§1) ceramide release by LC-ESI-MS/MS, Hanes-Woolf plot on Os3BGlu6 (GCase purified from rice leaves)

[2] = substrate: CCCCCCCCC/C=C\CC/C=C/[C@@H](O)[C@H](CO[C@@H]1O[C@H](CO)[C@@H](O)[C@H](O)[C@H]1O)NC(=O)[C@H](O)CCCCCCCCCCCCCC; assay: ceramide release by LC-ESI-MS/MS, Hanes-Woolf plot; type: biochemical, Oryza sativa; conditions: Buffer J pH 5.5 (sodium acetate, sodium cholate, 0.1% Tween 20), 37 °C, 15 min
Excerpt: as §1

[3] = substrate: CCCCCCCCCCCC/C=C/[C@@H](O)C(=O)N[C@@H](CO[C@@H]1O[C@H](CO)[C@@H](O)[C@H](O)[C@H]1O)[C@H](O)/C=C/CC/C=C(\C)CCCCCCCCC; assay: ceramide release by HPLC, Hanes-Woolf plot; type: biochemical, Oryza sativa; conditions: Buffer J pH 5.5 (sodium acetate, sodium cholate, 0.1% Tween 20), 37 °C, 15 min
Excerpt: (§2) ceramide release by HPLC, Hanes-Woolf plot on Os3BGlu6 (GCase purified from rice leaves)

[4] = substrate: CCCCCCCCCCCCC/C=C/[C@@H](O)[C@H](CO[C@@H]1O[C@H](CO)[C@@H](O)[C@H](O)[C@H]1O)NC(=O)CCCCCCC; assay: ceramide release by HPLC, Hanes-Woolf plot; type: biochemical, Oryza sativa; conditions: Buffer J pH 5.5 (sodium acetate, sodium cholate, 0.1% Tween 20), 37 °C, 15 min
Excerpt: as §2

[5] = substrate: CCCCCCCCCCCCC/C=C/[C@@H](O)[C@H](CO[C@@H]1O[C@H](CO)[C@@H](O)[C@H](O)[C@H]1O)NC(=O)CCCCCCCCCCC; assay: ceramide release by HPLC, Hanes-Woolf plot; type: biochemical, Oryza sativa; conditions: Buffer J pH 5.5 (sodium acetate, sodium cholate, 0.1% Tween 20), 37 °C, 15 min
Excerpt: as §2

[6] = substrate: CCCCCCCCCCCCC/C=C/[C@@H](O)[C@H](CO[C@@H]1O[C@H](CO)[C@@H](O)[C@H](O)[C@H]1O)NC(=O)CCCCCNc1ccc([N+](=O)[O-])c2nonc12; assay: hydrolysis, Hanes-Woolf plot; type: biochemical, Oryza sativa; conditions: Buffer J pH 5.5 (sodium acetate, sodium cholate, 0.1% Tween 20), 37 °C, 15 min, labelled compound (NBD)

B1: Os3BGlu6 (GCase purified from rice leaves) (Oryza sativa Japonica Group) (protein)
chain: QQSGGGLTRGSFPEGFVFGTASAAYQYEGAVKEDGRGQTIWDTFAHTFGKITDFSNADVAVDQYHRFEEDIQLMADMGMDAYRFSIAWSRIYPNGVGQVNQAGIDHYNKLIDALLAKGIQPYVTLYHWDLPQALEDKYKGWLDRQIVDDFAAYAETCFREFGDRVKHWITLNEPHTVAIQGYDAGLQAPGRCSVLLHLYCKAGNSGTEPYVVAHHFILAHAAAASIYRTKYKATQNGQLGIAFDVMWFEPMSNTTIDIEAAKRAQEFQLGWFADPFFFGDYPATMRARVGERLPRFTADEAAVVKGALDFVGINHYTTYYTRHNNTNIIGTLLNNTLADTGTVSLPFKNGKPIGDRANSIWLYIVPRGMRSLMNYVKERYNSPPVYITENGMDDSNNPFISIKDALKDSKRIKYHNDYLTNLAASIKEDGCDVRGYFAWSLLDNWEWAAGYSSRFGLYFVDYKDNLKRYPKNSVQWFKALLKT
Km (purified protein): 3825.3 ± 201.2 µM
kcat (purified protein): 285 s⁻¹
kcat/Km (purified protein): 75000 M⁻¹ s⁻¹
Km [1]: 50.0 ± 2.4 µM
kcat [1]: 146 ± 4.7 s⁻¹
kcat/Km [1]: 2.92e+06 ± 50000 M⁻¹ s⁻¹
Km [2]: 19.8 ± 0.8 µM
kcat [2]: 116 ± 2.9 s⁻¹
kcat/Km [2]: 5.85e+06 ± 190000 M⁻¹ s⁻¹
Km [3]: 41.1 ± 4.3 µM
kcat [3]: 151 ± 9.1 s⁻¹
kcat/Km [3]: 3.7e+06 ± 280000 M⁻¹ s⁻¹
Km [4]: 47.5 ± 3.8 µM
kcat [4]: 156 ± 8.6 s⁻¹
kcat/Km [4]: 3.29e+06 ± 150000 M⁻¹ s⁻¹
Km [5]: 46.1 ± 5.1 µM
kcat [5]: 121 ± 4.4 s⁻¹
kcat/Km [5]: 2.64e+06 ± 190000 M⁻¹ s⁻¹
Km [6]: 57.1 ± 7.9 µM
kcat [6]: 112 ± 11.8 s⁻¹
kcat/Km [6]: 1.97e+06 ± 120000 M⁻¹ s⁻¹
